7 molecules from PMC314469, “Protein Interaction Networks by Proteome Peptide Scanning” (PLoS Biology, 2004) can be followed below.

T1: Boi1 SH3 (BOI1_YEAST), P38041
T1 chain: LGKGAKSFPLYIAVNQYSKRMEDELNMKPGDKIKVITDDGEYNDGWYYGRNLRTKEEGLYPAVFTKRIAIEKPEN

T2: Boi2 SH3 (BOI2_YEAST), P39969
T2 chain: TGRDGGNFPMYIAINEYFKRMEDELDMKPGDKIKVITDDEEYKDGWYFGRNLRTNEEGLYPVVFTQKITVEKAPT

T3: Myo5 SH3 (MYO5_YEAST), Q04439
T3 chain: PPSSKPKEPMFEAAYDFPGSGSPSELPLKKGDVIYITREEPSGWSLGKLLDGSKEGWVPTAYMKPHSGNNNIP

T4: Rvs167 SH3 (RV167_YEAST), P39743
T4 chain: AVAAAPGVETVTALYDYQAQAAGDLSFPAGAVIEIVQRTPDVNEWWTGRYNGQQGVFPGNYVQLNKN

T5: Yfr024 SH3 (LSB3_YEAST), P43603
T5 chain: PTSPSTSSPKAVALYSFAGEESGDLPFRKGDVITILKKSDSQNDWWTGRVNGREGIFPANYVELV

T6: Yhr016c SH3 (YSC84_YEAST), P32793
T6 chain: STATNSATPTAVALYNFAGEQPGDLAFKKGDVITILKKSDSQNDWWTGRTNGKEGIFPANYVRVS

The target of one test is T1, Boi1 SH3 (BOI1_YEAST), P38041. Briefly: SPOT array.
Turning to EYFPREYPKDPVSE [YDR124W 275-288], the normalised SPOT signal, Boehringer light units (BLU); mean over the file's lines of this peptide came to 456.
Regarding EWEEKLTPAGPLSP [YDR402C 463-476], the normalised SPOT signal, Boehringer light units (BLU); mean over the file's lines of this peptide worked out at 65.4.
Molecule ETGVRYGPEFPLST [YNL277W 122-135] came in with a normalised SPOT signal, Boehringer light units (BLU); mean over the file's lines of this peptide of 93.9.
The molecule FANIKREPVHPEIR [YPR101W 28-41] gave a normalised SPOT signal, Boehringer light units (BLU); mean over the file's lines of this peptide of 96.
With EVLRKYIPGEPEFL [YDR023W 429-442], the normalised SPOT signal, Boehringer light units (BLU); mean over the file's lines of this peptide came to 46.4.
Turning to EVENKLRPDLPVKN [YFR030W 637-650], the normalised SPOT signal, Boehringer light units (BLU); mean over the file's lines of this peptide is 31.6.
In the case of FASEKGAPFFPNKT [YPR144C 134-147], the normalised SPOT signal, Boehringer light units (BLU); mean over the file's lines of this peptide stood at 60.7.

Another test deals with T2, Boi2 SH3 (BOI2_YEAST), P39969. Briefly: SPOT array.
Regarding EYFPREYPKDPVSE [YDR124W 275-288], the normalised SPOT signal, Boehringer light units (BLU); mean over the file's lines of this peptide came to 5.6.
Same read-out and setting: under EWEEKLTPAGPLSP [YDR402C 463-476] stands 13.1; under ETGVRYGPEFPLST [YNL277W 122-135], 23.4; under FANIKREPVHPEIR [YPR101W 28-41], 21.7.
For the molecule EVLRKYIPGEPEFL [YDR023W 429-442], the normalised SPOT signal, Boehringer light units (BLU); mean over the file's lines of this peptide turned out to be 0.
EVENKLRPDLPVKN [YFR030W 637-650] yielded a normalised SPOT signal, Boehringer light units (BLU); mean over the file's lines of this peptide of 24.9.
In the case of FASEKGAPFFPNKT [YPR144C 134-147], the normalised SPOT signal, Boehringer light units (BLU); mean over the file's lines of this peptide came to 269.

Another test has as its target T3, Myo5 SH3 (MYO5_YEAST), Q04439. Kind of test: SPOT array.
As for EYFPREYPKDPVSE [YDR124W 275-288], the normalised SPOT signal, Boehringer light units (BLU); mean over the file's lines of this peptide came out at 272.
In turn, EWEEKLTPAGPLSP [YDR402C 463-476] had a normalised SPOT signal, Boehringer light units (BLU); mean over the file's lines of this peptide of 297.
ETGVRYGPEFPLST [YNL277W 122-135] yielded a normalised SPOT signal, Boehringer light units (BLU); mean over the file's lines of this peptide of 96.2.
The same measure, in the same setting: under FANIKREPVHPEIR [YPR101W 28-41] stands 188; under EVLRKYIPGEPEFL [YDR023W 429-442], 169.
In turn, EVENKLRPDLPVKN [YFR030W 637-650] yielded a normalised SPOT signal, Boehringer light units (BLU); mean over the file's lines of this peptide of 40.7.
Same read-out and setting: under FASEKGAPFFPNKT [YPR144C 134-147] stands 359.

A further test has as its target T4, Rvs167 SH3 (RV167_YEAST), P39743. Briefly: SPOT array.
On to EYFPREYPKDPVSE [YDR124W 275-288], for which the normalised SPOT signal, Boehringer light units (BLU); mean over the file's lines of this peptide worked out at 104.
Same read-out and setting: then EWEEKLTPAGPLSP [YDR402C 463-476], with 46.8; and ETGVRYGPEFPLST [YNL277W 122-135], with 11.9; and FANIKREPVHPEIR [YPR101W 28-41], with 40.
In turn, EVLRKYIPGEPEFL [YDR023W 429-442] yielded a normalised SPOT signal, Boehringer light units (BLU); mean over the file's lines of this peptide of 6.9.
In turn, EVENKLRPDLPVKN [YFR030W 637-650] gave a normalised SPOT signal, Boehringer light units (BLU); mean over the file's lines of this peptide of 44.1.
In the case of FASEKGAPFFPNKT [YPR144C 134-147], the normalised SPOT signal, Boehringer light units (BLU); mean over the file's lines of this peptide amounted to 585.

For another test, the target named is Sho1 SH3 (SHO1_YEAST), P40073. Kind of test: SPOT array.
Sho1 SH3 (SHO1_YEAST), P40073, sequence (P40073 295-366): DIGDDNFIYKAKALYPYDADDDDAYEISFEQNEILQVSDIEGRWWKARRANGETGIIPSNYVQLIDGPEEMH
Regarding EYFPREYPKDPVSE [YDR124W 275-288], the normalised SPOT signal, Boehringer light units (BLU); mean over the file's lines of this peptide is 31.2.
On the same count and under the same terms, then EWEEKLTPAGPLSP [YDR402C 463-476], with 38.2; and ETGVRYGPEFPLST [YNL277W 122-135], with 23.1; and FANIKREPVHPEIR [YPR101W 28-41], with 76.
Still for that read-out and setting: then EVLRKYIPGEPEFL [YDR023W 429-442], with 47.5.
EVENKLRPDLPVKN [YFR030W 637-650] came in with a normalised SPOT signal, Boehringer light units (BLU); mean over the file's lines of this peptide of 39.1.
The molecule FASEKGAPFFPNKT [YPR144C 134-147] yielded a normalised SPOT signal, Boehringer light units (BLU); mean over the file's lines of this peptide of 12.3.

The target in another test is T5, Yfr024 SH3 (LSB3_YEAST), P43603. Kind of test: SPOT array.
EYFPREYPKDPVSE [YDR124W 275-288] displayed a normalised SPOT signal, Boehringer light units (BLU); mean over the file's lines of this peptide of 93.1.
Regarding EWEEKLTPAGPLSP [YDR402C 463-476], the normalised SPOT signal, Boehringer light units (BLU); mean over the file's lines of this peptide is 80.9.
Same read-out and setting: under ETGVRYGPEFPLST [YNL277W 122-135] stands 7.2; under FANIKREPVHPEIR [YPR101W 28-41], 74.4.
As to EVLRKYIPGEPEFL [YDR023W 429-442], the normalised SPOT signal, Boehringer light units (BLU); mean over the file's lines of this peptide is 0.
EVENKLRPDLPVKN [YFR030W 637-650] registered a normalised SPOT signal, Boehringer light units (BLU); mean over the file's lines of this peptide of 1360.
Still for that read-out and setting: then FASEKGAPFFPNKT [YPR144C 134-147], with 264.

A further test deals with T6, Yhr016c SH3 (YSC84_YEAST), P32793. Kind of test: SPOT array.
As for EYFPREYPKDPVSE [YDR124W 275-288], the normalised SPOT signal, Boehringer light units (BLU); mean over the file's lines of this peptide amounted to 22.8.
Still for that read-out and setting: under EWEEKLTPAGPLSP [YDR402C 463-476] stands 32.1; under ETGVRYGPEFPLST [YNL277W 122-135], 40.6.
On the same count and under the same terms, then FANIKREPVHPEIR [YPR101W 28-41], with 116.
On the same count and under the same terms, then EVLRKYIPGEPEFL [YDR023W 429-442], with 10.4; and EVENKLRPDLPVKN [YFR030W 637-650], with 14.9; and FASEKGAPFFPNKT [YPR144C 134-147], with 40.9.
